Experimental data taken from patent US20240067716A1, “IONIC LIQUID FORMULATIONS FOR TREATING INFLAMMATORY AND AUTOIMMUNE DISEASES” (i2O Therapeutics, Inc., priority 2021, published 2024).

Assay: Local delivery of infliximab to small intestinal tissue after intrajejunal or intravenous dosing, LC-MS/MS
Format: in vivo, Wistar rats
Conditions: rat, 5 h
From the text: Adult non-diabetic male Wistar rats were fasted overnight but given free access to water and subsequently dosed via intrajejunal injection (IJ) with infliximab and one of various choline-based ionic liquids, dosed via IJ with infliximab and saline, or dosed via intravenous injection (IV) with infliximab and saline.

With infliximab the “% of the injected infliximab dose in the local small intestinal tissue” value (intrajejunal injection (IJ)) was 0.06% and the “% of the injected antibody dose in the small intestinal tissue” value (intravenous injection (IV), in saline) was 0.95%.
